The target of data set [1] is T1, NPR-C (Homo sapiens, UniProt P17342).
T1 construct: expressed in transfected cells; host or cells: Hek293, lentiviral transduction, CMV promoter, puromycin selection
T1 sequence (P17342 27-541): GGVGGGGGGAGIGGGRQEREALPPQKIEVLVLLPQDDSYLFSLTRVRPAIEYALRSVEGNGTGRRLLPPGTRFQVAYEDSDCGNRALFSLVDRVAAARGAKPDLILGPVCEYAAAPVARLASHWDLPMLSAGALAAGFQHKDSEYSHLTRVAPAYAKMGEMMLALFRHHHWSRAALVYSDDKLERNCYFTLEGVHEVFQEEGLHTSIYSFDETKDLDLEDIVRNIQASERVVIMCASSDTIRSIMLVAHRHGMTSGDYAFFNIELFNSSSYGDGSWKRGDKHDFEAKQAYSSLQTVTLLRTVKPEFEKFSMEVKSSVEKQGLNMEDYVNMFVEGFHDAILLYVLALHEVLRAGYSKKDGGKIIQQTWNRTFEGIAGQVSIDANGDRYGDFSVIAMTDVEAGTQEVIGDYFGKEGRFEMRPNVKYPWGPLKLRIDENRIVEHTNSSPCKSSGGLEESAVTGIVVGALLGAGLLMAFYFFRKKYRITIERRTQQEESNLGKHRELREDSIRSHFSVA
Briefly: NPR-C affinity assay. Conditions: residual NPR-C affinity, NPR-C expressing Hek293 cells, competition with fluorescein-labelled CNP 27d. The data set is classed as binding.

Data set [2] concerns the target T2, NPR-B receptor (Mus musculus, UniProt Q6VVW5).
T2 construct: These cells express endogenously the NPR-B receptor on the cell surface; endogenous in cells; host or cells: NIH-3T3 (murine embryo fibroblast)
T2 sequence (Q6VVW5 23-1047 limits assumed): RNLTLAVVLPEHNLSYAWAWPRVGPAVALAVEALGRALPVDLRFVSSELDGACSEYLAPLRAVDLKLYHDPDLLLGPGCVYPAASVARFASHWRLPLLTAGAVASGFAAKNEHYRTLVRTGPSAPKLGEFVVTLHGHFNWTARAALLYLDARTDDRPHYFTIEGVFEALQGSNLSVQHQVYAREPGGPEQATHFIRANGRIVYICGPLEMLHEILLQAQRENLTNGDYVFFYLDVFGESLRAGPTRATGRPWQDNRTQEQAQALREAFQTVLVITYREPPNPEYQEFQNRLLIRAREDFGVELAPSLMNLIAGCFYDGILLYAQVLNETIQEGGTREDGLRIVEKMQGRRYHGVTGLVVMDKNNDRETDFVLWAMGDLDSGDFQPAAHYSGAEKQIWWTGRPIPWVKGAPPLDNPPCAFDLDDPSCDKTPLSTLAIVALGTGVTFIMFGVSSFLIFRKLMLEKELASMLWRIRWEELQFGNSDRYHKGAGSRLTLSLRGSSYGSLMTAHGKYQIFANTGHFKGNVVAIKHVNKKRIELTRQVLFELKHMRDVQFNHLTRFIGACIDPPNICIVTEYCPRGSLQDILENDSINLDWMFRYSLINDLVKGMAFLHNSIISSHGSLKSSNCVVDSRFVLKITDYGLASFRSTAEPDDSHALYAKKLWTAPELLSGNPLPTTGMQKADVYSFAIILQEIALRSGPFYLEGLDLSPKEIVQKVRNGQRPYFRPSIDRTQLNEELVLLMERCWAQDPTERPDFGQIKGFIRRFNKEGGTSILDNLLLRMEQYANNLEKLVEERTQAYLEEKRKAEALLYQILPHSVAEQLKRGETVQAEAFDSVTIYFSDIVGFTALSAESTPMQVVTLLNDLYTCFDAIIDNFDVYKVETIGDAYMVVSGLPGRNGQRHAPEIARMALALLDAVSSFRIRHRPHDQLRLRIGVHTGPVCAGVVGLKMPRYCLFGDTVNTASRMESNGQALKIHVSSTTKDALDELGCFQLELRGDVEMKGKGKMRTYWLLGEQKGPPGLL
Nature of the data set: Functional cGMP stimulation in NIH-3T3 cells with CNP variants. In kind it is cell-based, murine. Particulars: residual NPR-B activity vs non-PEGylated CNP-38, cGMP. As for the experimental part: As used herein “EC50” with regard to controlled-release CNP agonist and CNP agonist refers to the concentration of controlled-release CNP agonist and CNP agonist with which a half-maximum cGMP production of NPR-B is elicited. NPR-B activity in the form of its EC50 of the controlled-release CNP agonist, of the released CNP agonist and of CNP-22 is measured by cultivating NIH-3T3 (Murine Embryo Fibroblast cell line) cells which express NPR-B on their cell surface, incubating the cells with the controlled-release CNP agonist, the corresponding released CNP agonist or CNP-22, respectively, and determining the intracellular production of the second messenger cGMP with a standard cGMP assay. In particular the assay is performed as follows: • (1) murine NIH-3T3 cells expressing endogenous NPR-B are cultivated in DMEM F-12 medium with 5% FBS and 5 mM glutamine at 37° C. and 5% CO2; • (2) for each assay 50,000 cells are resuspended in Dulbecco's PBS with IBMX and incubated with either the controlled-release CNP agonist, the corresponding released CNP agonist or CNP-22; each in different concentrations; • (3) after incubating for 30 min at 37° C. and 5% CO2, the cells are lysed and cGMP levels are determined; and • (4) generating an EC50 value from the determined cGMP levels.
Functional activity of CNP variants were determined in a cell-based assay with NIH-3T3 cells (Murine Embryo Fibroblast cell line). These cells express endogenously the NPR-B receptor on the cell surface. Stimulation of the NPR-B receptor with CNP leads to intracellular production of the second messenger cGMP which is detected with a commercially available cGMP assay. NIH-3T3 cells were routinely cultured in DMEM F-12 medium with 5% FBS and 5 mM glutamine at 37° C. and 5% CO2. For each assay, 50,000 cells were resuspended in stimulation buffer (Dulbecco's PBS with IBMX) and incubated with the CNP variants in different concentrations. CNP (dilutions were made in PBS with 0.2% BSA). After incubation of 30 min at 37° C. and 5% CO2, the cells were lyzed and cGMP levels were determined with a commercially available cGMP TR-FRET assay (Cisbio, cGMP kit, Cat. No. 62GM2PEB). PEGylated CNP variants were always characterized in comparison with the non-PEGylated version in the same experiment batch. If possible, evaluation of the residual activity was done via the relative EC50-parameter of the resulting dose-response curve (restricted model with common slope).
11i was incubated under physiological conditions (1 mg CNP-38 eq/mL), as described in Example 20. After 7 d, released CNP-38 was isolated by RP-HPLC and analyzed for bioactivity as described in Example 21.

For data set [3] the following is noted: 0.146 mg CNP-38 eq/kg. The method, then:
Plasma total CNP-38 concentrations (conjugated and released CNP-38) were determined by quantification of the N-terminal signature peptide (sequence: […]) and C-terminal signature peptide (sequence: […]) after tryptic digestion.
LC-MS analysis was carried out by using an Agilent 1290 UPLC coupled to an Agilent 6550 iFunnel Q-TOF mass spectrometer via an ESI probe. Chromatography was performed on a Waters Acquity BEH300 C18 analytical column (50×2.1 mm I.D., 1.7 μm particle size) with pre-filter at a flow rate of 0.25 mL/min (T=25° C.). Water (UPLC grade) containing 0.2% formic acid (v/v) was used as mobile phase A and acetonitrile (UPLC grade) with 0.2% formic acid as mobile phase B. The gradient system comprised a short isocratic step at the initial parameters of 0.1% B for 3.0 min followed by a linear increase from 0.1% B to 16% B in 17 min. Mass analysis was performed in the single ion monitoring (SIM) mode, monitoring the ions m/z 482.75 [M+2H]^2+ (N-terminal) and m/z 824.36 [M+H]^1+ (C-terminal). As internal standard deuterated CNP-38 peptide was used.
Calibration standards of CNP-38 conjugate in blank plasma were prepared as follows: The thawed Li-heparin cynomolgous plasma was first homogenized, then centrifuged for 5 minutes. […] These solutions were used for the generation of a calibration curve.
For sample preparation, protein precipitation was carried out by addition of 300 μL of pre-cooled (0° C.) methanol to 100 μL of the plasma sample. 200 μL of the supernatant were transferred into a new well-plate and evaporated to dryness (under a gentle nitrogen stream at 35° C.). 100 μL of reconstitution solvent (Thermo digestion buffer, order number 60109-101, Thermo Fisher Scientific GmbH, Dreieich, Germany) were used to dissolve the residue. 20 μg of trypsin (order number V5111, Promega GmbH, Mannheim, Germany) were dissolved in 20 μL of 10 mM acetic acid. 2 μL of the trypsin solution were added to each cavity.
After 4 hours incubation at 37° C. (water bath), 5 μL of a 0.5 M TCEP solution were added to each cavity and incubated again for 5 min at 96° C. After the samples had cooled to room temperature, 3 μL acetonitrile were added. The eluates were transferred into vials. 10 μL were injected into the UPLC-MS system.
Male cynomolgus monkeys (2-4 years old, 3-5 kg) received either a single subcutaneous administration (n=3 animals) of compound 10f or a single subcutaneous (n=3 animals) administration of 11i at a dose of 0.146 mg CNP-38 eq/kg. Blood samples were collected up to 168 h post dose, and plasma was generated. Plasma levels of total CNP-38 content were analyzed as described in example 24. In order to analyze the plasma content of free CNP-38, the blood samples were acidified after withdrawal by adding 20 vol % of 0.5 M sodium citrate buffer pH 4 to stop further CNP-38 release from the conjugate. Free CNP-38 levels in plasma can e.g. be determined by ELISA using a CNP antibody that binds to the ring region of CNP, as described in the literature (U.S. Pat. No. 8,377,884 B2), or by LC-MS/MS.

A short description of data set [4]: Evaluation of cardiovascular effects in the conscious telemetered mouse (subcutaneous administration). The data set is classed as in vivo, Crl:CD1(ICR) mice. Particulars: for MAP: mean ± SD, n = 4. An excerpt:
The purpose of this study was to evaluate the haemodynamic side effects of 11i at dose level equivalent to a CNP-38 dose level eliciting haemodynamic side effects (decrease in blood pressure) in the telemetered mouse.
Male Crl:CD1(ICR) mice (age range 8-13 weeks and body weight range 27.3-35.6 g at start of dosing) were surgically implanted with a TA11PA-C10 telemetry transmitter (Data Sciences International (DSI)) in the carotid artery. The body of the transmitter was placed subcutaneously in the lateral flank of the mouse. The mice were dosed subcutaneously in a latin square crossover design with at least 72 hours between dosing occasions. Mice were dosed with 1) vehicle (10 mM succinate, 46.0 g/L mannitol, pH 4.00), 2) CNP-38 (800 μg CNP-38/kg, 10 mM succinate, 46.0 g/L mannitol, pH 4.00) or 3) 11i (800 μg CNP-38 eq/kg, 10 mM succinate, 46.0 g/L mannitol, pH 4.00). At least four mice were included at each dose level. Blood pressure (systolic (SAP), diastolic (DAP) and mean (MAP) and heart rate (HR, derived from blood pressure), were recorded using a digital data capture system linked with a DSITM Ponemah data acquisition and analysis system. The capture system allowed recording of the cardiovascular parameters whilst the mice were in individual cages. On the day of each test session the animals were weighed and a predose recording was performed for at least 60 min prior to dosing. Each mouse was returned to the home cage and the cardiovascular parameters were recorded for approximately 48 hours postdose. Blood pressure and HR were reported at the following time points: −30, −20, −10, 5, 15 and 30 min postdose and 1, 2, 6, 12, 18, 24, 30, 36, 42 and 48 hours postdose. Each time point was presented as the average value of five minute's recording prior to the time point. The monitoring period was selected to cover exposure to the test items both prior to and after Tmax.

Regarding “Permanent N-Terminal CNP-38 PEG 5 kDa Conjugate [Compound 15e]”, the “IC50 of PEGylated CNP-38/IC50 CNP-38” value in data set [1] came out at 0.53. In addition, in data set [2], the “EC50 compound/EC50 CNP-38” value is more than 5.
In the case of “Reversible Lys26 CNP-38 PEG4×10 kDa Conjugate [Compound 11i]”, the dose site reactions result in data set [3] (single sc) was “No dose site reactions were observed”. Further, in data set [3] (single sc, C-terminal and N-terminal peptide), the terminal half life fell in the range of 72 to 96 h. The “total CNP-38 plasma level after 168 h” value in data set [3] (single sc, C-terminal peptide) was “ca. 30 % of cmax”. Moreover, the “total CNP-38 tmax” value in data set [3] (single subcutaneous administration) came to 24 h. Further, in data set [4] (800 μg CNP-38 (eq)/kg sc), the HR entry is listed as “not impacted”. Further, the “MAP versus vehicle at the remaining ten time points” value in data set [4] (1 to 48 hours postdose, 800 μg CNP-38 (eq)/kg sc) is “no difference in MAP”. Further, in data set [4] (5, 15 and 30 min post dose, 800 μg CNP-38 (eq)/kg sc, CNP-38: 3 of 4 animals), the “change in MAP compared to predose” value is reported as “same physiological increase in MAP”. For the same substance, the MAP is recorded as 122.8 ± 5.9 mmHg in data set [4] (5 min post dose, 800 μg CNP-38 (eq)/kg sc); 121.5 ± 7.5 mmHg in data set [4] (15 min post dose, 800 μg CNP-38 (eq)/kg sc); 111.5 ± 13.7 mmHg in data set [4] (30 min post dose, 800 μg CNP-38 (eq)/kg sc); 106.4 ± 10.7 mmHg in data set [4] (predose, 800 μg CNP-38 (eq)/kg sc). In addition, the “effect on blood pressure” value in data set [4] (subcutaneous, dosage equivalent to CNP-38 800 μg/kg) was “did not decrease blood pressure”.
